Experimental data published in the supplement of paper PMC5998384.

What was measured:
HeLa Kyoto [1] = experiment: solubility change mitosis vs G1/S (difference of NP-40 vs SDS log2 ratios) (log2 ratio difference); higher = more soluble in mitosis
HeLa Kyoto [2] = experiment: solubility in G1/S (NP-40 vs SDS abundance) (log2 ratio); higher = more soluble; settings: cell cycle stage: G1/S
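Throughout, for solubility change mitosis vs G1/S (difference of NP-40 vs SDS log2 ratios): synchronized HeLa Kyoto cells (double thymidine block for G1/S, nocodazole release for mitosis), protein amounts in NP-40 versus SDS lysates quantified by mass spectrometry, three biological replicates.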
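Throughout, for solubility in G1/S (NP-40 vs SDS abundance): HeLa Kyoto cells arrested at G1/S by double thymidine block, proteins quantified by TMT10plex mass spectrometry in mild NP-40 versus SDS extracts, three biological replicates.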

Sequence	solubility change mitosis (log2) (HeLa Kyoto [1])	solubility in G1/S (log2) (HeLa Kyoto [2])
MHSSNPKVRSSPSGNTQSSPKSKQEVMVRPPTVMSPSGNPQLDSKFSNQGKQGGSASQSQPSPCDSKSGGHTPKALPGPGGSMGLKNGAGNGAKGKGKRERSISADSFDQRDPGTPNDDSDIKECNSADHIKSQDSQHTPHSMTPSNATAPRSSTPSHGQTTATEPTPAQKTPAKVVYVFSTEMANKAAEAVLKGQVETIVSFHIQNISNNKTERSTAPLNTQISALRNDPKPLPQQPPAPANQDQNSSQNTRLQPTPPIPAPAPKPAAPPRPLDRESPGVENKLIPSVGSPASSTPLPPDGTGPNSTPNNRAVTPVSQGSNSSSADPKAPPPPPVSSGEPPTLGENPDGLSQEQLEHRERSLQTLRDIQRMLFPDEKEFTGAQSGGPQQNPGVLDGPQKKPEGPIQAMMAQSQSLGKGPGPRTDVGAPFGPQGHRDVPFSPDEMVPPSMNSQSGTIGPDHLDHMTPEQIAWLKLQQEFYEEKRRKQEQVVVQQCSLQDMMVHQHGPRGVVRGPPPPYQMTPSEGWAPGGTEPFSDGINMPHSLPPRGMAPHPNMPGSQMRLPGFAGMINSEMEGPNVPNPASRPGLSGVSWPDDVPKIPDGRNFPPGQGIFSGPGRGERFPNPQGLSEEMFQQQLAEKQLGLPPGMAMEGIRPSMEMNRMIPGSQRHMEPGNNPIFPRIPVEGPLSPSRGDFPKGIPPQMGPGRELEFGMVPSGMKGDVNLNVNMGSNSQMIPQKMREAGAGPEEMLKLRPGGSDMLPAQQKMVPLPFGEHPQQEYGMGPRPFLPMSQGPGSNSGLRNLREPIGPDQRTNSRLSHMPPLPLNPSSNPTSLNTAPPVQRGLGRKPLDISVAGSQVHSPGINPLKSPTMHQVQSPMLGSPSGNLKSPQTPSQLAGMLAGPAAAASIKSPPVLGSAAASPVHLKSPSLPAPSPGWTSSPKPPLQSPGIPPNHKAPLTMASPAMLGNVESGGPPPPTASQPASVNIPGSLPSSTPYTMPPEPTLSQNPLSIMMSRMSKFAMPSSTPLYHDAIKTVASSDDDSPPARSPNLPSMNNMPGMGINTQNPRISGPNPVVPMPTLSPMGMTQPLSHSNQMPSPNAVGPNIPPHGVPMGPGLMSHNPIMGHGSQEPPMVPQGRMGFPQGFPPVQSPPQQVPFPHNGPSGGQGSFPGGMGFPGEGPLGRPSNLPQSSADAALCKPGGPGGPDSFTVLGNSMPSVFTDPDLQEVIRPGATGIPEFDLSRIIPSEKPSQTLQYFPRGEVPGRKQPQGPGPGFSHMQGMMGEQAPRMGLALPGMGGPGPVGTPDIPLGTAPSMPGHNPMRPPAFLQQGMMGPHHRMMSPAQSTMPGQPTLMSNPAAAVGMIPGKDRGPAGLYTHPGPVGSPGMMMSMQGMMGPQQNIMIPPQMRPRGMAADVGMGGFSQGPGNPGNMMF [BCL9]	0.0803	0.308
MIKCLSVEVQAKLRSGLAISSLGQCVEELALNSIDAEAKCVAVRVNMETFQVQVIDNGFGMGSDDVEKVGNRYFTSKCHSVQDLENPRFYGFRGEALANIADMASAVEISSKKNRTMKTFVKLFQSGKALKACEADVTRASAGTTVTVYNLFYQLPVRRKCMDPRLEFEKVRQRIEALSLMHPSISFSLRNDVSGSMVLQLPKTKDVCSRFCQIYGLGKSQKLREISFKYKEFELSGYISSEAHYNKNMQFLFVNKRLVLRTKLHKLIDFLLRKESIICKPKNGPTSRQMNSSLRHRSTPELYGIYVINVQCQFCEYDVCMEPAKTLIEFQNWDTLLFCIQEGVKMFLKQEKLFVELSGEDIKEFSEDNGFSLFDATLQKRVTSDERSNFQEACNNILDSYEMFNLQSKAVKRKTTAENVNTQSSRDSEATRKNTNDAFLYIYESGGPGHSKMTEPSLQNKDSSCSESKMLEQETIVASEAGENEKHKKSFLEHSSLENPCGTSLEMFLSPFQTPCHFEESGQDLEIWKESTTVNGMAANILKNNRIQNQPKRFKDATEVGCQPLPFATTLWGVHSAQTEKEKKKESSNCGRRNVFSYGRVKLCSTGFITHVVQNEKTKSTETEHSFKNYVRPGPTRAQETFGNRTRHSVETPDIKDLASTLSKESGQLPNKKNCRTNISYGLENEPTATYTMFSAFQEGSKKSQTDCILSDTSPSFPWYRHVSNDSRKTDKLIGFSKPIVRKKLSLSSQLGSLEKFKRQYGKVENPLDTEVEESNGVTTNLSLQVEPDILLKDKNRLENSDVCKITTMEHSDSDSSCQPASHILNSEKFPFSKDEDCLEQQMPSLRESPMTLKELSLFNRKPLDLEKSSESLASKLSRLKGSERETQTMGMMSRFNELPNSDSSRKDSKLCSVLTQDFCMLFNNKHEKTENGVIPTSDSATQDNSFNKNSKTHSNSNTTENCVISETPLVLPYNNSKVTGKDSDVLIRASEQQIGSLDSPSGMLMNPVEDATGDQNGICFQSEESKARACSETEESNTCCSDWQRHFDVALGRMVYVNKMTGLSTFIAPTEDIQAACTKDLTTVAVDVVLENGSQYRCQPFRSDLVLPFLPRARAERTVMRQDNRDTVDDTVSSESLQSLFSEWDNPVFARYPEVAVDVSSGQAESLAVKIHNILYPYRFTKGMIHSMQVLQQVDNKFIACLMSTKTEENGEAGGNLLVLVDQHAAHERIRLEQLIIDSYEKQQAQGSGRKKLLSSTLIPPLEITVTEEQRRLLWCYHKNLEDLGLEFVFPDTSDSLVLVGKVPLCFVEREANELRRGRSTVTKSIVEEFIREQLELLQTTGGIQGTLPLTVQKVLASQACHGAIKFNDGLSLQESCRLIEALSSCQLPFQCAHGRPSMLPLADIDHLEQEKQIKPNLTKLRKMAQAWRLFGKAECDTRQSLQQSMPPCEPP [MLH3]	0.153	-0.402
MILQRLFRFSSVIRSAVSVHLRRNIGVTAVAFNKELDPIQKLFVDKIREYKSKRQTSGGPVDASSEYQQELERELFKLKQMFGNADMNTFPTFKFEDPKFEVIEKPQA [ATP5J]	0.55	-0.962
MIMNKMKNFKRRFSLSVPRTETIEESLAEFTEQFNQLHNRRNENLQLGPLGRDPPQECSTFSPTDSGEEPGQLSPGVQFQRRQNQRRFSMEDVSKRLSLPMDIRLPQEFLQKLQMESPDLPKPLSRMSRRASLSDIGFGKLETYVKLDKLGEGTYATVFKGRSKLTENLVALKEIRLEHEEGAPCTAIREVSLLKNLKHANIVTLHDLIHTDRSLTLVFEYLDSDLKQYLDHCGNLMSMHNVKIFMFQLLRGLAYCHHRKILHRDLKPQNLLINERGELKLADFGLARAKSVPTKTYSNEVVTLWYRPPDVLLGSTEYSTPIDMWGVGCIHYEMATGRPLFPGSTVKEELHLIFRLLGTPTEETWPGVTAFSEFRTYSFPCYLPQPLINHAPRLDTDGIHLLSSLLLYESKSRMSAEAALSHSYFRSLGERVHQLEDTASIFSLKEIQLQKDPGYRGLAFQQPGRGKNRRQSIF [CDK18]	-0.00432	0.0482
MIRDLSKMYPQTRHPAPHQPAQPFKFTISESCDRIKEEFQFLQAQYHSLKLECEKLASEKTEMQRHYVMYYEMSYGLNIEMHKQAEIVKRLNAICAQVIPFLSQEHQQQVVQAVERAKQVTMAELNAIIGQQLQAQHLSHGHGLPVPLTPHPSGLQPPAIPPIGSSAGLLALSSALGGQSHLPIKDEKKHHDNDHQRDRDSIKSSSVSPSASFRGAEKHRNSADYSSESKKQKTEEKEIAARYDSDGEKSDDNLVVDVSNEDPSSPRGSPAHSPRENGLDKTRLLKKDAPISPASIASSSSTPSSKSKELSLNEKSTTPVSKSNTPTPRTDAPTPGSNSTPGLRPVPGKPPGVDPLASSLRTPMAVPCPYPTPFGIVPHAGMNGELTSPGAAYAGLHNISPQMSAAAAAAAAAAAYGRSPVVGFDPHHHMRVPAIPPNLTGIPGGKPAYSFHVSADGQMQPVPFPPDALIGPGIPRHARQINTLNHGEVVCAVTISNPTRHVYTGGKGCVKVWDISHPGNKSPVSQLDCLNRDNYIRSCRLLPDGRTLIVGGEASTLSIWDLAAPTPRIKAELTSSAPACYALAISPDSKVCFSCCSDGNIAVWDLHNQTLVRQFQGHTDGASCIDISNDGTKLWTGGLDNTVRSWDLREGRQLQQHDFTSQIFSLGYCPTGEWLAVGMENSNVEVLHVTKPDKYQLHLHESCVLSLKFAHCGKWFVSTGKDNLLNAWRTPYGASIFQSKESSSVLSCDISVDDKYIVTGSGDKKATVYEVIY [TLE4]	-0.13	-0.00686
MKEMVGGCCVCSDERGWAENPLVYCDGHACSVAVHQACYGIVQVPTGPWFCRKCESQERAARVRCELCPHKDGALKRTDNGGWAHVVCALYIPEVQFANVLTMEPIVLQYVPHDRFNKTCYICEEQGRESKAASGACMTCNRHGCRQAFHVTCAQMAGLLCEEEVLEVDNVKYCGYCKYHFSKMKTSRHSSGGGGGGAGGGGGSMGGGGSGFISGRRSRSASPSTQQEKHPTHHERGQKKSRKDKERLKQKHKKRPESPPSILTPPVVPTADKVSSSASSSSHHEASTQETSESSRESKGKKSSSHSLSHKGKKLSSGKGVSSFTSASSSSSSSSSSSGGPFQPAVSSLQSSPDFSAFPKLEQPEEDKYSKPTAPAPSAPPSPSAPEPPKADLFEQKVVFSGFGPIMRFSTTTSSSGRARAPSPGDYKSPHVTGSGASAGTHKRMPALSATPVPADETPETGLKEKKHKASKRSRHGPGRPKGSRNKEGTGGPAAPSLPSAQLAGFTATAASPFSGGSLVSSGLGGLSSRTFGPSGSLPSLSLESPLLGAGIYTSNKDPISHSGGMLRAVCSTPLSSSLLGPPGTSALPRLSRSPFTSTLPSSSASISTTQVFSLAGSTFSLPSTHIFGTPMGAVNPLLSQAESSHTEPDLEDCSFRCRGTSPQESLSSMSPISSLPALFDQTASAPCGGGQLDPAAPGTTNMEQLLEKQGDGEAGVNIVEMLKALHALQKENQRLQEQILSLTAKKERLQILNVQLSVPFPALPAALPAANGPVPGPYGLPPQAGSSDSLSTSKSPPGKSSLGLDNSLSTSSEDPHSGCPSRSSSSLSFHSTPPPLPLLQQSPATLPLALPGAPAPLPPQPQNGLGRAPGAAGLGAMPMAEGLLGGLAGSGGLPLNGLLGGLNGAAAPNPASLSQAGGAPTLQLPGCLNSLTEQQRHLLQQQEQQLQQLQQLLASPQLTPEHQTVVYQMIQQIQQKRELQRLQMAGGSQLPMASLLAGSSTPLLSAGTPGLLPTASAPPLLPAGALVAPSLGNNTSLMAAAAAAAAVAAAGGPPVLTAQTNPFLSLSGAEGSGGGPKGGTADKGASANQEKG [MLLT6]	0.828	-1.14
MKLLSLVAVVGCLLVPPAEANKSSEDIRCKCICPPYRNISGHIYNQNVSQKDCNCLHVVEPMPVPGHDVEAYCLLCECRYEERSTTTIKVIIVIYLSVVGALLLYMAFLMLVDPLIRKPDAYTEQLHNEEENEDARSMAAAAASLGGPRANTVLERVEGAQQRWKLQVQEQRKTVFDRHKMLS [TMEM9]	0.292	0.254
MKPVHERSQECLPPKKRDLPVTSEDMGRTTSCSTNHTPSSDASEWSRGVVVAGQSQAGARVSLGGDGAEAITGLTVDQYGMLYKVAVPPATFSPTGLPSVVNMSPLPPTFNVASSLIQHPGIHYPPLHYAQLPSTSLQFIGSPYSLPYAVPPNFLPSPLLSPSANLATSHLPHFVPYASLLAEGATPPPQAPSPAHSFNKAPSATSPSGQLPHHSSTQPLDLAPGRMPIYYQMSRLPAGYTLHETPPAGASPVLTPQESQSALEAAAANGGQRPRERNLVRRESEALDSPNSKGEGQGLVPVVECVVDGQLFSGSQTPRVEVAAPAHRGTPDTDLEVQRVVGALASQDYRVVAAQRKEEPSPLNLSHHTPDHQGEGRGSARNPAELAEKSQARGFYPQSHQEPVKHRPLPKAMVVANGNLVPTGTDSGLLPVGSEILVASSLDVQARATFPDKEPTPPPITSSHLPSHFMKGAIIQLATGELKRVEDLQTQDFVRSAEVSGGLKIDSSTVVDIQESQWPGFVMLHFVVGEQQSKVSIEVPPEHPFFVYGQGWSSCSPGRTTQLFSLPCHRLQVGDVCISISLQSLNSNSVSQASCAPPSQLGPPRERPERTVLGSRELCDSEGKSQPAGEGSRVVEPSQPESGAQACWPAPSFQRYSMQGEEARAALLRPSFIPQEVKLSIEGRSNAGK [ATXN1L]	-0.12	0.172
